# Assay results as given in US20200148778A1 (JIANGSU HENGRUI MEDICINE, published 2020).
# Where a chain is given by its changes, count along the chain named.
# B1: mouse hybridoma anti-human CD40 antibody 9E5 (antibody, V domains shown)
# VH: QVQLQQPGADLVKPGASVKMSCKASGYILTTYWITWVKQRPGQGLEWIGDIHPGSGSTKYNEKFKSKATLTVDTSSSTAYMQLTRLSSEDSAVYYCARRDYWGQGTTLTVSS
# VL: DVLMTQSPLSLPVSLGDQASISCRSSQNIVNSQGNTYLEWYLQKPGESPKLLIYKVTNRFSGVPDRFSGSGSGTDFTLKISRVEAEDLGVYYCFQASLVPWTFGGGTKLEIK
# notes: Murine hybridoma antibody; also called mouse 9E5
# B2: mouse hybridoma anti-human CD40 antibody 2H6 (antibody, V domains shown)
# VH: QVQLQQSGAELVRPGTSVKVSCKASGYAFSDYLIEWAKQRPGQGLEWIGVINPGSGGSNYNEKIKDRATLTADKSSSTAYMQLSSLTSEDSAVYFCARGGGGFTYWGQGTLVTVSA
# VL: EIQLTQTTSSLSASLGDRVTISCRASQDISNYLNWYQQKPDGTIKLLLNFASRLHSGVPSRFSGSGSGTDFFLTISNLEQDDIATYFCQQGSTLPWTFGGGTKLEIK
# notes: Murine hybridoma antibody; also called mouse mAb 2H6
# B3: mouse hybridoma anti-human CD40 antibody 14C10 (antibody, V domains shown)
# VH: B2 VH with L4V, S30T, D31N, A37V, G54E, S55F, S58T, I64F, D66G, R67K
# VL: HIQMTQTTSSLSASLGDRVTISCRASQDISSHLNWYQQKPDGTVKLLISYTSRLHSGVPSRFSGSGSGADYSLTISNLEQEDIATYFCQQGNTLPWTFGGGTKLEIK
# notes: Murine hybridoma antibody
# B4: mouse hybridoma anti-human CD40 antibody 38B4 (antibody, V domains shown)
# VH: QVRLKQSGAELVRPGASVKVSCKASGYTFTDYYINWVKQRPGQGLEWIAGIYPGTGNTYYNEKFKGKATLTAERSSSTAYMQLTSLTSEDSAVYFCTRRGLPSLCFDYWGQGTTLTVSS
# VL: DFQMTQTTSSLSASLGDRVTISCSASQGISNYLNWYQQKPDGTVKLLIYYTSSLHSGVPSRFSGSGSGTDYSLTISNLEPEDIATYYCQQYSKLPPTFGGGTKLEIK
# notes: Murine hybridoma antibody
# B5: mouse hybridoma anti-human CD40 antibody 1D9 (antibody, V domains shown)
# VH: QVRLQQSGAELVRPGTSMRVSCKASGYAFTNYLINWVKQRPGQGLEWIGILNPGSGGTNYNENFKDKATLTADKSSNTAYMQLSSLTSEDSAVYFCIRGSPGFAYWGQGTLVTVSA
# VL: DIQMTQTTSSLSASLGDRVTISCRASQDINIYLNWYQQKPDGTVKLLIYSTSGLHSGVPSRFNGSGSGTDYSLTISNLEQEDIATYFCQQGYTLPYTFGGGTKLEIK
# notes: Murine hybridoma antibody
# B6: humanized anti-CD40 antibody hu9E5 (H1c heavy chain and L1a light chain) (antibody, human IgG1, kappa, V domains shown)
# VH: QVQLVQSGAEVKKPGASVKVSCKASGYILTTYWITWVRQAPGQGLEWMGDIHPGSGSTKYNEKFKSRVTLTVDTSISTAYMELSRLRSEDTAVYYCARRDYWGQGTTVTVSS
# VL: DIVMTQSPLSLPVTPGEPASISCRSSQNIVNSQGNTYLEWYLQKPGQSPQLLIYKVTNRFSGVPDRFSGSGSGTDFTLKISRVEAEDVGVYYCFQASLVPWTFGGGTKVEIKR
# notes: the suffix -25 is not explained; Human IgG1/kappa; also called Hu9E5-25
# B7: humanized anti-CD40 antibody hu2H6 (H1b heavy chain and L1c light chain) (antibody, human IgG1, kappa, V domains shown)
# VH: QVQLVQSGAEVKKPGSSVKVSCKASGYAFSDYLIEWVRQAPGQGLEWMGVINPGSGGSNYNEKIKDRVTLTADKSTSTAYMELSSLRSEDTAVYYCARGGGGFTYWGQGTLVTVSS
# VL: DIQLTQSPSSLSASVGDRVTITCRASQDISNYLNWYQQKPGKTIKLLLNFASRLHSGVPSRFSGSGSGTDFTFTISSLQPEDIATYYCQQGSTLPWTFGGGTKVEIKR
# notes: the suffix -11 is not explained; Human IgG1/kappa; also called Hu2H6-11
# B8: human-mouse chimeric antibody 9E5-C (antibody, V domains shown)
# VH: B1 VH
# VL: B1 VL
# notes: Variable regions of murine 9E5 ligated to the constant region of human antibody IgG1; made in HEK293 cells
# B9: human-mouse chimeric antibody 2H6-C (antibody, V domains shown)
# VH: B2 VH
# VL: B2 VL
# notes: Variable regions of murine 2H6 ligated to the constant region of human antibody IgG1; made in HEK293 cells
# Molecular target: T1, His-tagged mouse CD40 (m-CD40-his) recombinant protein (mouse, UniProt P27512 24-193)
# T1 construct: range 24-193; Bought from Acrobiosystems; also called Mouse CD40-his; not shown: His tag
# T1 sequence (P27512 24-193 limits assumed): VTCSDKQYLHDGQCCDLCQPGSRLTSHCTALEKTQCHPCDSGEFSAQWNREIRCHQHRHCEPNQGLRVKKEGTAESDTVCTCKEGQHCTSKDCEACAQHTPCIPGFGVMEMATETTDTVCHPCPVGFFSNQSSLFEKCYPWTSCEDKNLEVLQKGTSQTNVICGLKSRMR
# Experiment: ELISA, CD40-his coated
row,Binder,binding result
1,B1,no binding
2,B2,no binding
3,B3,no binding
4,B4,no binding
5,B5,no binding

# Molecular target: human CD40 on HEK293 cells stably transfected with the human CD40 gene (HEK-Blue CD40L cells) (human, UniProt P25942 21-277)
# Sequence (P25942 21-277): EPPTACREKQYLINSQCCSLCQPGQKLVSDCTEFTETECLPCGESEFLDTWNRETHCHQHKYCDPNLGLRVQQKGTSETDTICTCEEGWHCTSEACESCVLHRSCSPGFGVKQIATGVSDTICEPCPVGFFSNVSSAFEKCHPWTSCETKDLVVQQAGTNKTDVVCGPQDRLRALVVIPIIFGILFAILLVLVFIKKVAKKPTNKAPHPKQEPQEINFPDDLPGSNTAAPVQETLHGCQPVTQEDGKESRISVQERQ
# Experiment: cell-based or functional assay
row,Binder,HEK293-CD40L cells activity assay EC50 [ng/mL]
1,B1,17.1
2,B2,15.1
3,B3,10.9
4,B4,36.5
5,B5,14.5

# Molecular target: T2, His-tagged human CD40 (h-CD40-his) recombinant protein (human, UniProt P25942 21-193)
# T2 construct: range 21-193; Bought from Acrobiosystems; also called Human CD40-his; not shown: His tag
# T2 sequence (P25942 21-193 limits assumed): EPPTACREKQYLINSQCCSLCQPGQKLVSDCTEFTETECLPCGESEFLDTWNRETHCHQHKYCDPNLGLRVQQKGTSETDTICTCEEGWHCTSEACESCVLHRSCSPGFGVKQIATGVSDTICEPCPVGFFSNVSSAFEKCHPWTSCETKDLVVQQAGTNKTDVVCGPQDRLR
# Experiment: Biacore, affinity to human CD40
# Source text: (§1) Human antibody captured antibody was covalently coupled to CM5 biosensor chip of Biacore instrument (Biacore X100, GE) according to the method described in the description of Human Antibody Capture Kit (Cat. BR-1008-39, GE), thereby capturing a certain amount of chimeric or humanized antibodies to be tested based on affinity. Then a series of concentration gradient CD40 antigens (purchased from Acrobiosystems) flowed through the surface of chip, and Biacore X100 (GE) was used to detect the reaction signals in real time to obtain the binding and dissociation curves. After the completion of each cycle of dissociation, the biochip was rinsed and regenerated with the regeneration solution provided by the Human Antibody Capture Kit. Amine Coupling Kits (Cat. BR-1000-50, GE) were purchased from GE, and the buffer solution HBS-EP+buffer 1× (pH 7.4), which was obtained from HBS-EP+buffer 10× (Cat. BR-1006-69, GE) by dilution with D. I. Water.
Binder,fold of affinity against the Alligator reference [times],fold of affinity against the Pfizer reference [times]
B6,9,3

# Molecular target: T2, His-tagged human CD40 (h-CD40-his) …
# Experiment: ELISA, human CD40-his coated
# Protocol: (§2) Binding properties of anti-CD40 antibodies was detected by ELISA assay. The CD40 recombinant protein with his-tag was directly used for coating, after the antibody was added, the binding activity of the antibody to the antigen—was detected by adding a secondary antibody (HRP-conjugated anti-antibody Fc antibody) and HRP substrate TMB.
# (§3) A 96-well microtiter plate was coated with 100 μl/well of human or rhesus CD40-his protein at a concentration of 0.5 μg/ml and incubated overnight at 4° C. The plate was rinsed three times with rinsing buffer, 250 μl per well. For each rinsing, the plate was shaken for 10 seconds to ensure sufficient cleaning. 200 μl blocking solution was added in each well and incubated for 2 hours at room temperature. Then the plate was washed three times with 250 μl per well. The plate was shaken for 10 seconds in each rinsing to ensure sufficient cleaning. 100 μl of anti-CD40 antibody to be tested diluted in dilution was added to each well, and incubated for 1 hour at room temperature, then rinsing the plate for three times with 250 μl of rinsing buffer per well. 100 μl of HRP-labeled goat anti-human IgG secondary antibody diluted 1:20000 with diluent was added to each well, and incubated for 1 hour at room temperature. Then the plate was washed three times with 250 μl per well. 100 μl of TMB was added to each well and allowed to react for 15 minutes in the dark. 50 μl of 0.16 M sulfuric acid per well was added. The OD value was measured at 450 nm by Thermo MpμltiSkanFc plate reader and the binding EC50 value of the CD40 antibody to […] was calculated.
row,Binder,EC50 [ng/mL]
1,B7,3.68
2,B1,6
3,B8,1.35
4,B2,7.06
5,B9,4.56
6,B3,8.81
7,B6,1.65
8,B4,12.9
9,B5,10

# Molecular target: T3, His-tagged rhesus CD40 (rhesus-CD40-his) recombinant protein (rhesus, UniProt F6SNI1 21-193)
# T3 construct: range 21-193; Bought from Acrobiosystems (# CD0-052H7); not shown: His tag
# Experiment: ELISA, rhesus CD40-his coated
# Protocol: as §2, §3
row,Binder,EC50 [ng/mL]
1,B7,2.95
2,B1,6.7
3,B2,7.21
4,B3,9.49
5,B6,1.66
6,B4,11.8
7,B5,9.81

# Molecular target: T2, His-tagged human CD40 (h-CD40-his) …
# Experiment: Biacore X100, antibody captured by anti-human antibody on CM5 chip, CD40 antigen as analyte, 1:1 model
# Source text: as §1
row,Binder,Kd [nM]
1,B7,11.2
2,B8,2.68
3,B9,3.98
4,B6,5.3
